Assay results reported in US20180038857A1.
One block for each substance: values may come before it.

Key:
Assay in all cases: cell-based or functional assay
hCCR9 (human) = hCCR9 (human) (UniProt P51686)
hCXCR3 (human) = hCXCR3 (human) (UniProt P49682)
hCCR6 (human) = target: T1, hCCR6 (human) (UniProt P51684)
T1 sequence (looked up): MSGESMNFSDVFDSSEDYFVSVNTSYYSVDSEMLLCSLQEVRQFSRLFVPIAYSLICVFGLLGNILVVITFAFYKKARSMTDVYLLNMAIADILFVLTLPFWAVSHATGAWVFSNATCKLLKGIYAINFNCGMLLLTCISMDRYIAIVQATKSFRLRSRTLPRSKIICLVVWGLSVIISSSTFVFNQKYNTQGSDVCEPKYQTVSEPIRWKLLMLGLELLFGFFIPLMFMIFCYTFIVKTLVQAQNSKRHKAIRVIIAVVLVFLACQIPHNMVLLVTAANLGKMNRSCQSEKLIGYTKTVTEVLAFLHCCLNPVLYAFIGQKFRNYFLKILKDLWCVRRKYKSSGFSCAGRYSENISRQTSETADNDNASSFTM

hCCR3 (human) = hCCR3 (human) (UniProt P51677)
Chain of hCCR3 (human) (P51677 whole entry): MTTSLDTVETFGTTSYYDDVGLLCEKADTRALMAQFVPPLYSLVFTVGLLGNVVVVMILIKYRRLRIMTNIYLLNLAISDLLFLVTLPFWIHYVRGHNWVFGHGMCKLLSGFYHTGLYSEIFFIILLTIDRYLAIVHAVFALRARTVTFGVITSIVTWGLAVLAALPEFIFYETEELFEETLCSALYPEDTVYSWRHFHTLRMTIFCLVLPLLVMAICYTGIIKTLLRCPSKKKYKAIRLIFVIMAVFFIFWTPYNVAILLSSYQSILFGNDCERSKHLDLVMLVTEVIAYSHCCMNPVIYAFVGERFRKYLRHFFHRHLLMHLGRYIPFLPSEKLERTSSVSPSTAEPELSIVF

Chain of hCCR9 (human) (P51686 whole entry): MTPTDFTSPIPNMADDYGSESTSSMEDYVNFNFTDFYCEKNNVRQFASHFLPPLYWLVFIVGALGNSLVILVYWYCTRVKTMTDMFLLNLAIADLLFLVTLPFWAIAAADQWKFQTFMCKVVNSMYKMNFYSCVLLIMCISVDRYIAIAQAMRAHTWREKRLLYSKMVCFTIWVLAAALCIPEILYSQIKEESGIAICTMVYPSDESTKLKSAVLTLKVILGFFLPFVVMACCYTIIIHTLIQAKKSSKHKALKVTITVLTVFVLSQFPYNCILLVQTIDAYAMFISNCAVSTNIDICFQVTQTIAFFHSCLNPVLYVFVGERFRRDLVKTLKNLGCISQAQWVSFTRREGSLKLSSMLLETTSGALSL
Chain of UniProt O15444 (O15444 other isoform, or with tags, fused parts or gaps limits assumed): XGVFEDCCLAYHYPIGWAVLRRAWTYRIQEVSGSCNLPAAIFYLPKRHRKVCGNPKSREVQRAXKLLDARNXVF
Chain of recombinant native MIP-3α (P78556 27-96 limits assumed): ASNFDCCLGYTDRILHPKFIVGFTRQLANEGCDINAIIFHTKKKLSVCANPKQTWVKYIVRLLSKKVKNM
Chain of hCXCR3 (human) (P49682 whole entry): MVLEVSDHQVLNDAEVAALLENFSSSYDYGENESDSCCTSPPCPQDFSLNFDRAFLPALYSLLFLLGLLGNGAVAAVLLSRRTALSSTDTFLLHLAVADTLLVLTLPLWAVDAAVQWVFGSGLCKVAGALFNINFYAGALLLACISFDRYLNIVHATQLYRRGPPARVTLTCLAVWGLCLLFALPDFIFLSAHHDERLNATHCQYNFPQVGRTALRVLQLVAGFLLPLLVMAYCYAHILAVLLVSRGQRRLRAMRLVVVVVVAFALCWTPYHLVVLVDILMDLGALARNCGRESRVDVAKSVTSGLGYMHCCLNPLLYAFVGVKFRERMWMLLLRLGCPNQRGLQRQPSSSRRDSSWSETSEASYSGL

EC50, agonist activity in an Aequorin assay (hCCR9 (human)): 63.6 nM
Substance: biotinTECK(Met to Nleu substitution) (CCL25): TECK derivatised at the ε-amino side chain functionality of Lys72 with PEG-Biotin (from UniProt O15444 25-97) (ligand)

EC50, agonist activity in an Aequorin assay (hCXCR3 (human)): 4.4 nM
Substance: recombinant native IP-10 (from UniProt P02778 22-98) (ligand)

EC50, agonist activity in an Aequorin assay (hCCR6 (human)): 1 nM
Substance: recombinant native MIP-3α (from UniProt P78556 27-96) (ligand)

EC50, agonist activity in an Aequorin assay (hCCR9 (human)): 67.9 nM
Substance: recombinant native TECK (from UniProt O15444 24-150) (ligand)

EC50, activity in an Aequorin assay (agonist) (hCCR3 (human)): 10.7 nM
Substance: recombinant native eotaxin (from UniProt P51671 24-97) (ligand)
